# Measured values as given in article PMC3493456.
# What was measured:
# [1] = biological target: DNA polymerase beta WT (242Pro) (Homo sapiens, UniProt P06746 1-335); assay: EMSA; EMSA as described previously (ref 34); buffer, salt, pH and temperature not given in the material
# [2] = biological target: DNA polymerase beta P242R (rs3136797) (Homo sapiens, UniProt P06746 1-335, P242R); assay: as above
binder,measurement,setting,value
"1-bp gapped DNA (dsDNA, 5' phosphate on downstream oligo (S8)) DNA 1: GCCTCGCAGCCGTCCAACCAAC DNA 2: CAACCTCGATCCAATGCCGTCC DNA 3: GGACGGCATTGGATCGAGGTTGAGTTGGTTGGACGGCTGCGAGGC",Kd,[1],5 nM
same,Kd,[2],5 nM
